From patent US20240309103A1 (Regeneron, published 2024)

Key:
mNPR1-mFc [1] = target: T1, mNPR1-mFc (mouse); assay: SPR Biacore, mAb captured by anti-human Fc, 25C
T1 construct: also called mouse NPR1 extracellular domain expressed with a C-terminal mouse IgG2a
T1 chain: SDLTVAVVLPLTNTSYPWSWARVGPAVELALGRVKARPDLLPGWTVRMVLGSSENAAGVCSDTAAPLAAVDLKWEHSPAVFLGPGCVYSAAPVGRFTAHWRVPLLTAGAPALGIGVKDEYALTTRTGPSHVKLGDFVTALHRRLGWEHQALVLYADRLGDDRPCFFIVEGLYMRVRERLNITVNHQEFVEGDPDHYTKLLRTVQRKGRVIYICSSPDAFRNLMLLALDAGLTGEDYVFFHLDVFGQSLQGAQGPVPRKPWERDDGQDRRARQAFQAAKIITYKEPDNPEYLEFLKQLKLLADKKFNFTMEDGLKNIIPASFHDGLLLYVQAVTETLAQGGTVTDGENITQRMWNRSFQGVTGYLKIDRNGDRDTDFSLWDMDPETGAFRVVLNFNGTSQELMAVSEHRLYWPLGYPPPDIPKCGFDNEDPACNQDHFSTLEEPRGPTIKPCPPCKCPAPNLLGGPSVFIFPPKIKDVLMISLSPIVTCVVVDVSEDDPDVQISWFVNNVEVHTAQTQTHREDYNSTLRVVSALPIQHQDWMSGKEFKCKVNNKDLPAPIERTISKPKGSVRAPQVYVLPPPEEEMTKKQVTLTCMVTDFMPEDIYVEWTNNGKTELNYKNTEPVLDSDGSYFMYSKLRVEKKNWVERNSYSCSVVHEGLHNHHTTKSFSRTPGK
Method: (§1) Equilibrium dissociation constant (KD) for different NPR1 reagents binding to purified anti-NPR1 monoclonal antibodies (mAbs) were determined using a real-time surface plasmon resonance based Biacore 4000 biosensor. All binding studies were performed in 10 mM HEPES, 150 mM NaCl, 3 mM EDTA, and 0.05% v/v Surfactant Tween-20, pH 7.4 (HBS-ET) running buffer at 25° C. and 37° C. The Biacore CM5 sensor chip surface was first derivatized by amine coupling with either mouse anti-human Fc specific mAb (GE Healthcare, #BR100839) or goat anti-human Fcy specific polyclonal antibody (Jackson ImmunoResearch Laboratories, #BR-1008-39) to capture anti-NPR1 mAbs.

[2] = target: T2, human NPR1 on HEK293/hNPR1.myc.DDK cells with 10 nM hANP (NPR1-ANP complex) (human, UniProt P01160 124-151); assay: ECL cell binding (MSD), +10 nM hANP
T2 construct: also called NPR1-ANP Complex on the Cell Surface
T2 sequence: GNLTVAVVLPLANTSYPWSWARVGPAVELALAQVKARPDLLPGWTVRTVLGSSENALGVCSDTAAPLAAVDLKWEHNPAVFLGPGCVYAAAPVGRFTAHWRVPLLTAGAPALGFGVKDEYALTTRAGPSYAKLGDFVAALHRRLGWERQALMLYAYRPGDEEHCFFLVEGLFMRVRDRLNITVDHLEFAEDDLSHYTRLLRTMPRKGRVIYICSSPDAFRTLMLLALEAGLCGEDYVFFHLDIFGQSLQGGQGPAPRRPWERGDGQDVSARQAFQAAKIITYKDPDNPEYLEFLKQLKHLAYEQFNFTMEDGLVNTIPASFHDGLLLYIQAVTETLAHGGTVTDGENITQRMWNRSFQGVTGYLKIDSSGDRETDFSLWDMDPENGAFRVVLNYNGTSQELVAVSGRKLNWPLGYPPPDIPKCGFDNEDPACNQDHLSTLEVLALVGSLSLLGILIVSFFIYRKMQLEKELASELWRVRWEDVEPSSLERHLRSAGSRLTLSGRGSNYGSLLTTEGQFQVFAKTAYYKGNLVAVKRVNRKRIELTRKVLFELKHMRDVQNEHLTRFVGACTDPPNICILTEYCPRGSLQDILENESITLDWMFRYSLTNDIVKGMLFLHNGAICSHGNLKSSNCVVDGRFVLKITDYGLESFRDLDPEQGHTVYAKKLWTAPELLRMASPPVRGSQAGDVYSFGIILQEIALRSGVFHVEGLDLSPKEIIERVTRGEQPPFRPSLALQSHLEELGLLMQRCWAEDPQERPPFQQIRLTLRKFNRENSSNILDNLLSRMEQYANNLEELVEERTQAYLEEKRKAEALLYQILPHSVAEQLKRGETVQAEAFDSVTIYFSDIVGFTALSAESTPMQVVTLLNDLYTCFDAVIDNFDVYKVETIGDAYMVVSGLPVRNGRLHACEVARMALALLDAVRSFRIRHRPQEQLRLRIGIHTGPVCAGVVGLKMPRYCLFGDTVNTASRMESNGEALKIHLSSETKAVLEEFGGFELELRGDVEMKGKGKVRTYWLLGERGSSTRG
T2 sequence (peptide): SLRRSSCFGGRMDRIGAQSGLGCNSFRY
Method: (§2) All cells were washed once with 1×PBS with Ca²⁺/Mg²⁺ and counted with a Cellometer™ Auto T4 cell counter (Nexcelom Bioscience). Approximately 2.0×10⁴ HEK293/hNPR1.myc.DDK or HEK293 cells were seeded separately onto 96-well carbon electrode plates (MULTI-ARRAY high bind plate, Meso Scale Discovery (MSD, Rockville, MD)) and incubated for 1 hour (h) at 37° C. Nonspecific binding sites were blocked by 2% BSA (w/v) in 1×PBS with Ca²⁺/Mg²⁺for 1 h at room temperature (RT). HEK293/hNPR1.myc. […] The plate-bound antibodies were detected with SULFO-TAG™-conjugated goat polyclonal anti-human IgG antibody specific for heavy and light chains (Jackson Immunoresearch, West Grove, PA) for 1 h, RT.
(§3) After washes, plates were developed with Read Buffer (MSD, Rockville, MD) according to manufacturer's recommended procedure and luminescent signals were recorded with a SECTOR Imager 600 (MSD, Rockville, MD). Luminescence intensity, measured in relative light units (RLU), was recorded to indicate the binding intensity of each antibody at the range of concentrations.
(§4) In addition, direct binding signals (RLU) were analyzed as a function of the antibody concentration and data were fitted with a sigmoidal (four-parameter logistic) dose-response model using R statistical package (open source).

[3] = target: T3, human NPR1 on HEK293/hNPR1.myc.DDK cells (0 hANP) (human, UniProt P16066 33-1061); assay: ECL cell binding (MSD), HEK293/hNPR1.myc.DDK cells, 0 hANP
T3 construct: Full-length receptor on engineered HEK293 cells, no ANP added; also called HEK293/hNPR1.myc.DKK
T3 sequence: T2 sequence
Method: as §2, with “Experiments were carried out according to the following procedure. Cells from lines described above were rinsed once in 1×PBS buffer without Ca²⁺/Mg²⁺ nd incubated for 10 minutes at 37° C. with Enzyme Free Cell Dissociation Solution to detach cells from a flask. All” for “All”
as §3

[4] = target: T3, human NPR1 on HEK293/hNPR1.myc.DDK …; assay: ECL cell binding (MSD), 0 hANP
Method: as §2, §3, §4

[5] = target: T3, human NPR1 on HEK293/hNPR1.myc.DDK …; assay: cell-based or functional assay
mNPR1-mFc [6] = target: T1, mNPR1-mFc; assay: SPR Biacore, mAb captured by anti-human Fc, 37C
Method: as §1

mfNPR1-mFc:hBNP complex = target: T4, mfNPR1-mFc:hBNP complex (monkey; human, UniProt P16860 103-134); assay: SPR Biacore, mAb captured by anti-human Fc, 37C
T4 construct: Receptor-Fc pre-complexed with 10-fold hBNP
Method: as §1

B1: mAb22805 (antibody, human IgG4, V domains shown)
VH: QVQLVESGGGVVQPGRSLRLSCAASGFTFSTYGMHWVRQAPGKGLEWVALIWNDGSNKYYADSVKGRFTISRDNSKNTLDLQMNSLRAEDTAVYYCARLNTRITGTTNLDYWGQGTLVTVSS
VL: DIQMTQSPSSLSASVGDRVTVSCRASQSIANYLNWYQQKPGKAPNLLIYGAYTLQSGVPSRFRGSGSGTDFTLTISSLQPEDFATYYCQQTYSTPPITFGQGTRLEIK
mNPR1-mFc [1]
  100 nM Ag Bound (RU): 0 RU
[2]
  EC50: 0.65 nM
  Ratio at 3.7 nM Ab concentration of Cell Binding Signal (RLU) to HEK293/hNPR1.myc.DKK relative to parental HEK293: 222 ratio
[3]
  binding result: no binding (tested: ratio below 3 at 3.7 nM Ab)
[4]
  Ratio at 3.7 nM Ab concentration of Cell Binding Signal (RLU) to HEK293/hNPR1.myc.DKK relative to parental HEK293: 1 ratio
[5]
  % Activation (vs ANP max), Expt 1: 91.6%
  % Activation (vs. ANP max), Expt II: 119%
  EC50 (nM), calcium flux, Expt 1: 239 nM
  EC50 (nM), calcium flux, Expt II: 112 nM
mNPR1-mFc [6]
  100 nM Ag Bound (RU): 0 RU
  binding result: no binding (tested: 100 nM)
mfNPR1-mFc:hBNP complex
  100 nM Ag Bound (RU): 150 RU
  Kd: 3.39 nM
  koff: 0.000202 s⁻¹
  kon: 59600 M⁻¹ s⁻¹
  t½: 57.2 min

B2: mAb22810 (antibody, human IgG4, V domains shown)
VH: EVQLVESGGGLVKPGGSLRLSCVVSGFTFRIYTMNWVRQAPGKGLEWVASISSSSSFINYADSLKGRFTISRDNAQNSLYLQMNSLRAEDTAIYYCARAAGNDVLPGRMDVWGQGTSVTVSS
VL: EIVLTQSPGTLSLSPGERATLSCRASQSVSSNYLAWYQQKPGQVPSLLIYGASSRATGIPDRFSGSGSGTDFTLTITRLEPEDFAVYYCQQYGISPWTFGQGTKVEIK
[2]
  EC50: 3.7 nM
  Ratio at 3.7 nM Ab concentration of Cell Binding Signal (RLU) to HEK293/hNPR1.myc.DKK relative to parental HEK293: 24 ratio
[3]
  binding result: no binding (tested: ratio below 3 at 3.7 nM Ab)
[4]
  Ratio at 3.7 nM Ab concentration of Cell Binding Signal (RLU) to HEK293/hNPR1.myc.DKK relative to parental HEK293: 1 ratio
[5]
  % Activation (vs. ANP max), Expt II: 126%
  EC50 (nM), calcium flux, Expt II: 50.8 nM

B3: mAb25545 (antibody, human IgG4, V domains shown)
VH: QVQLVESGGGLVKPGGSLRLSCAASGFTFSDYHLSWIRQAPGKGLEWVSYIRSSGRTIDYAASVKGRFTISRDNAKNSLYLQMNSLRVEDTAVYYCARENWIVLKVYAGIVGAPLDQWGQGTLVTVSS
VL: not shown
mNPR1-mFc [1]
  100 nM Ag Bound (RU): 0 RU
[2]
  EC50: 1.9 nM
  Ratio at 3.7 nM Ab concentration of Cell Binding Signal (RLU) to HEK293/hNPR1.myc.DKK relative to parental HEK293: 79 ratio
[3]
  binding result: no binding (tested: ratio below 3 at 3.7 nM Ab)
[4]
  Ratio at 3.7 nM Ab concentration of Cell Binding Signal (RLU) to HEK293/hNPR1.myc.DKK relative to parental HEK293: 1 ratio
[5]
  % Activation (vs ANP max), Expt 1: 123%
  % Activation (vs. ANP max), Expt II: 123%
  EC50 (nM), calcium flux, Expt 1: 188 nM
  EC50 (nM), calcium flux, Expt II: 74.1 nM
mNPR1-mFc [6]
  100 nM Ag Bound (RU): 1 RU
  binding result: no binding (tested: 100 nM)
mfNPR1-mFc:hBNP complex
  100 nM Ag Bound (RU): 82 RU
  Kd: 2.09 nM
  koff: 7.77e-05 s⁻¹
  kon: 37100 M⁻¹ s⁻¹
  t½: 149 min

B4: mAb22809 (antibody, human IgG4, V domains shown)
VH: QLQLRESGPGLVKPSETLSLTCTVSGGSINDNSFFWDWIRQTPGRGLEWIGNIFFDGNTYYTPSLKSRVIISVDMSQNQFSLRLTSVTAADTALYYCARHKRSMTAWGFFDYWGQGTLVTVSS
VL: DIQMTQSPSSLSASVGDRVTITCRASKRINTYLNWYQQKPGKAPKVLIYSASNLQSGVPSRFSGSGSGTDFTLTINSLQPEDFATYFCQQSFSAPPITFGQGTRLEIK
mNPR1-mFc [1]
  100 nM Ag Bound (RU): 0 RU
[2]
  EC50: 0.48 nM
  Ratio at 3.7 nM Ab concentration of Cell Binding Signal (RLU) to HEK293/hNPR1.myc.DKK relative to parental HEK293: 166 ratio
[3]
  binding result: no binding (tested: ratio below 3 at 3.7 nM Ab)
[4]
  Ratio at 3.7 nM Ab concentration of Cell Binding Signal (RLU) to HEK293/hNPR1.myc.DKK relative to parental HEK293: 2 ratio
[5]
  % Activation (vs ANP max), Expt 1: 86.7%
  EC50 (nM), calcium flux, Expt 1: 270 nM
mNPR1-mFc [6]
  100 nM Ag Bound (RU): 0 RU
  binding result: no binding (tested: 100 nM)
mfNPR1-mFc:hBNP complex
  100 nM Ag Bound (RU): 99 RU
  Kd: 4.29 nM
  koff: 0.000229 s⁻¹
  kon: 53400 M⁻¹ s⁻¹
  t½: 50.5 min
